Results reported in US20240301064A1.

Target: PD-1 on PD-1 reporter Jurkat cells
Experiment: cell-based or functional assay

SHP-2 recruitment, Ig-tethered test article, PD-1 reporter Jurkat cells; EC50: 2.94 nM | SHP-2 recruitment, Ig-tethered test article, PD-1 reporter Jurkat cells; EC50 (second experiment): 2.59 nM
Substance: CC-90006 (antibody)
